These results are taken from doi:10.1101/2023.05.10.540157 (bioRxiv, 2023).

The target in assay [1] is T1, mineralocorticoid receptor (MR), NanoBiT fusion LgBiT-MR (UniProt P08235 1-984).
T1 sequence: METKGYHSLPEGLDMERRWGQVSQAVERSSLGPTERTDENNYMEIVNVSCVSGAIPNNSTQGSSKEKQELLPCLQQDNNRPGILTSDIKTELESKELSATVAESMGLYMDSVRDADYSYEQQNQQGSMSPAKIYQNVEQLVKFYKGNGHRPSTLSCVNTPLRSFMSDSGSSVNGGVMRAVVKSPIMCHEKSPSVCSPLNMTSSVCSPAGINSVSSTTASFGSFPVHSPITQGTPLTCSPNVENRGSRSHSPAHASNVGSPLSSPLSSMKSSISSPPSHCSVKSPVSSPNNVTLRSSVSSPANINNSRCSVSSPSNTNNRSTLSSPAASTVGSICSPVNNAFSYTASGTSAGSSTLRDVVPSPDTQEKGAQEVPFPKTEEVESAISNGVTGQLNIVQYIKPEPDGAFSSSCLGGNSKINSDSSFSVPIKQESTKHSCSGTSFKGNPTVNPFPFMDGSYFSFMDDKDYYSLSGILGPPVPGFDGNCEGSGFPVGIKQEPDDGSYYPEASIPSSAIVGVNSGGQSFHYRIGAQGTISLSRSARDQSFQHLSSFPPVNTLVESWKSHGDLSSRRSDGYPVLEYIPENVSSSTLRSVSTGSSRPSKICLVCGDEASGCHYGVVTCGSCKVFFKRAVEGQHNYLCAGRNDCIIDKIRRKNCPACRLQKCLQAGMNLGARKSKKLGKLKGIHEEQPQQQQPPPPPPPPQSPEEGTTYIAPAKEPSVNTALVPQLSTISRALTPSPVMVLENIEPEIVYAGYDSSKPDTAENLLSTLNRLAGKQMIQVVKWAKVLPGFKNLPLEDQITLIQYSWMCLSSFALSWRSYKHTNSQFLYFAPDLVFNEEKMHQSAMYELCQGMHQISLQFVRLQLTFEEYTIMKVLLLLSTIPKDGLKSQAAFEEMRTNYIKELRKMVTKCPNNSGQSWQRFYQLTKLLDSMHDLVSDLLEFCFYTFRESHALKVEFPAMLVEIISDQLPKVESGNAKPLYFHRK
Nature of the assay: split reporter.

For assay [2], the target named is T1, mineralocorticoid receptor (MR), …. Nature of the assay: split reporter. This is another data set of the same source.

Where two headings read alike, the source gives them in different places.

B1: glucocorticoid receptor (GR), NanoBiT fusion GR-SmBiT (receptor)
chain: MDSKESLTPGREENPSSVLAQERGDVMDFYKTLRGGATVKVSASSPSLAVASQSDSKQRRLLVDFPKGSVSNAQQPDLSKAVSLSMGLYMGETETKVMGNDLGFPQQGQISLSSGETDLKLLEESIANLNRSTSVPENPKSSASTAVSAAPTEKEFPKTHSDVSSEQQHLKGQTGTNGGNVKLYTTDQSTFDILQDLEFSSGSPGKETNESPWRSDLLIDENCLLSPLAGEDDSFLLEGNSNEDCKPLILPDTKPKIKDNGDLVLSSPSNVTLPQVKTEKEDFIELCTPGVIKQEKLGTVYCQASFPGANIIGNKMSAISVHGVSTSGGQMYHYDMNTASLSQQQDQKPIFNVIPPIPVGSENWNRCQGSGDDNLTSLGTLNFPGRTVFSNGYSSPSMRPDVSSPPSSSSTATTGPPPKLCLVCSDEASGCHYGVLTCGSCKVFFKRAVEGQHNYLCAGRNDCIIDKIRRKNCPACRYRKCLQAGMNLEARKTKKKIKGIQQATTGVSQETSENPGNKTIVPATLPQLTPTLVSLLEVIEPEVLYAGYDSSVPDSTWRIMTTLNMLGGRQVIAAVKWAKAIPGFRNLHLDDQMTLLQYSWMFLMAFALGWRSYRQSSANLLCFAPDLIINEQRMTLPCMYDQCKHMLYVSSELHRLQVSYEEYLCMKTLLLLSSVPKDGLKSQELFDEIRMTYIKELGKAIVKREGNSSQNWQRFYQLTKLLDSMHEVVENLLNYCFQTFLDKTMSIEFPEMLAEIITNQIPKYSNGNIKKLLFHQK
With B1, the “fold induction of NanoBiT luminescence versus solvent” value in assay [1] is approximately 8 fold; in assay [2], approximately 6 fold.
